Experimental findings from US20180030149A1 (AVEO PHARMACEUTICALS, published 2018) are described below.

The Kd is the equilibrium constant for the complex coming apart. For orientation: koff means a measure of how fast the partners let go of each other. Usually kon stands for the rate constant with which the complex forms.

B1: Sh24C05-45 (antibody, human IgG1, kappa, V domains shown)
VH: EVQLVESGGGLVKPGGSLRLSCAASGFTFSDYAMSWVRQAPGKGLEWVSTISDGGTYTYYPDNVKGRFTISRDNAKNSLYLQMNSLRAEDTAVYYCAREWGDYDGFDYWGQGTLVTVSS
VL: DIQMTQSPSSLSASVGDRVTITCRASQEISGYLSWYQQKPGKAPKLLIYAASTLDSGVPSRFSGSGSGTDFTLTISSLQPEDFATYYCLQYDSYPYTFGQGTKLEIKR
notes: Humanized, human IgG1/kappa
B2: Sh24C05-26 (antibody, human IgG1, kappa)
heavy: not shown
light: DIQMTQSPSSLSASVGDRVTITCRASQEISGYLSWYQQKPGKAPKRLIYAASTLDSGVPSRFSGSGSGTEFTLTISSLQPEDFATYYCLQYDSYPYTFGQGTKLEIKRTVAAPSVFIFPPSDEQLKSGTASVVCLLNNFYPREAKVQWKVDNALQSGNSQESVTEQDSKDSTYSLSSTLTLSKADYEKHKVYACEVTHQGLSSPVTKSFNRGEC
notes: Humanized, human IgG1/kappa
B3: Sh24C05-37 (antibody, human IgG1, kappa, V domains shown)
VH: B1 VH with E1Q, V37I
VL: B1 VL with L73F, F83I
notes: Humanized, human IgG1/kappa
B4: Sh24C05-15 (antibody, human IgG1, kappa, V domains shown)
VH: B1 VH
VL: B1 VL with Y36L, K42G, P44I, L46R, T69S, F71Y
notes: Humanized, human IgG1/kappa
B5: Sh24C05-34 (antibody, human IgG1, kappa, V domains shown)
VH: B1 VH with V5L, K13Q, A75S, S78T
VL: B1 VL with L73F, F83I
notes: Humanized, human IgG1/kappa
B6: Sh24C05-23 (antibody, human IgG1, kappa, V domains shown)
VH: B1 VH with E1Q, L11V, K13Q, G16R, S49A, A75S, S78T, N84S
VL: B1 VL with Y36F, L46S
notes: Humanized, human IgG1/kappa
B7: Sh24C05-22 (antibody, human IgG1, kappa, V domains shown)
VH: B1 VH with V5L, K13Q, A75S, S78T
VL: B1 VL with Y36F, L46S
notes: Humanized, human IgG1/kappa
B8: Sh24C05-39 (antibody, human IgG1, kappa, V domains shown)
VH: B1 VH
VL: B1 VL with M4L, S10F, D70E
notes: Humanized, human IgG1/kappa
B9: Sh24C05-21 (antibody, human IgG1, kappa, V domains shown)
VH: B1 VH
VL: B1 VL with Y36F, L46S
notes: Humanized, human IgG1/kappa
B10: Sh24C05-28 (antibody, human IgG1, kappa, V domains shown)
VH: B1 VH with V5L, K13Q, A75S, S78T
VL: B1 VL with L46R, D70E
notes: Humanized, human IgG1/kappa
B11: Sh24C05-16 (antibody, human IgG1, kappa, V domains shown)
VH: B1 VH with V5L, K13Q, A75S, S78T
VL: B1 VL with Y36L, K42G, P44I, L46R, T69S, F71Y
notes: Humanized, human IgG1/kappa
B12: Sh24C05-24 (antibody, human IgG1, kappa)
heavy: not shown
light: B2 light with Y36F, R46S, E70D
notes: Humanized, human IgG1/kappa
B13: Sh24C05-33 (antibody, human IgG1, kappa, V domains shown)
VH: B1 VH
VL: B1 VL with L73F, F83I
notes: Humanized, human IgG1/kappa
B14: Sh24C05-18 (antibody, human IgG1, kappa)
heavy: not shown
light: B2 light with Y36L, K42G, P44I, T69S, E70D, F71Y
notes: Humanized, human IgG1/kappa
B15: Sh24C05-27 (antibody, human IgG1, kappa, V domains shown)
VH: B1 VH
VL: B1 VL with L46R, D70E
notes: Humanized, human IgG1/kappa
B16: Sh24C05-30 (antibody, human IgG1, kappa)
heavy: not shown
light: B2 light
notes: Humanized, human IgG1/kappa
B17: Sh24C05-35 (antibody, human IgG1, kappa, V domains shown)
VH: B1 VH with E1Q, L11V, K13Q, G16R, S49A, A75S, S78T, N84S
VL: B1 VL with L73F, F83I
notes: Humanized, human IgG1/kappa
B18: Sh24C05-38 (antibody, human IgG1, kappa)
heavy: not shown
light: B2 light with M4L, S10F, R46L
notes: Humanized, human IgG1/kappa
B19: Sh24C05-29 (antibody, human IgG1, kappa, V domains shown)
VH: B1 VH with E1Q, L11V, K13Q, G16R, S49A, A75S, S78T, N84S
VL: B1 VL with L46R, D70E
notes: Humanized, human IgG1/kappa
B20: Sh24C05-20 (antibody, human IgG1, kappa)
heavy: not shown
light: B2 light with Y36F, R46S, E70D
notes: Humanized, human IgG1/kappa
B21: Sh24C05-14 (antibody, human IgG1, kappa)
heavy: not shown
light: B2 light with Y36L, K42G, P44I, T69S, E70D, F71Y
notes: Humanized, human IgG1/kappa
B22: Sh24C05-19 (antibody, human IgG1, kappa, V domains shown)
VH: B1 VH with E1Q, V37I
VL: B1 VL with Y36L, K42G, P44I, L46R, T69S, F71Y
notes: Humanized, human IgG1/kappa

Residue numbers refer to the chain shown, from its start.

In this experiment the target is T1, recombinant human ErbB3 monomeric protein (cleaved rhErbB3) (human, UniProt P21860 20-643, limits assumed).
T1 construct: Monomer made by protease cleavage of the Fc fusion; also called Monomeric ErbB3
Briefly: SPR Biacore 37 C; supernatant antibody captured on anti-human Fc, cleaved rhErbB3 injected. How it is done:
The analyses were performed at 37° C. using PBS (Invitrogen, Catalog No. 14040-133) containing 0.05% surfactant P20 (Biacore, Catalog No. BR-1000-54) as running buffer.
The antibodies were captured in individual flow cells at a flow rate of […]. Injection time was varied for each antibody to yield an Rₘₐₓ between 30 and 60 RU. […] The dissociation phase was monitored for up to 1200 seconds. The surface was then regenerated with two 60 second injections of Glycine pH 2.25 (made from Glycine pH 2.0 (Biacore, Catalog No. BR-1003-55) and pH 2.5 (Biacore, Catalog No. BR-1003-56)) at […].
Kinetic parameters were determined using the kinetic function of the BIAevaluation software (Biacore) with double reference subtraction. Kinetic parameters for each antibody, kₐ (association rate constant), kd (dissociation rate constant) and KD (equilibrium dissociation constant) were determined.
For the molecule B1, the equilibrium dissociation constant (Kd) was found to be 0.707 nM, the off-rate (koff) was found to be 0.00606 s⁻¹ and the kon stood at 8.57e+06 M⁻¹ s⁻¹.

B2: the Kd was 0.22 nM, the koff turned out to be 0.000739 s⁻¹ and the association rate constant (kon) is 3.36e+06 M⁻¹ s⁻¹.

For B3, the dissociation constant (Kd) was 0.374 nM, the koff turned out to be 0.002 s⁻¹ and the kon came to 5.94e+06 M⁻¹ s⁻¹.

On to B4, for which the Kd was found to be 0.187 nM, the koff came out at 0.000499 s⁻¹ and the on-rate constant (kon) came out at 2.67e+06 M⁻¹ s⁻¹.

As to B5, the Kd came to 0.552 nM, the off-rate constant (koff) was determined as 0.006 s⁻¹ and the on-rate constant (kon) is 1.09e+07 M⁻¹ s⁻¹.

For the molecule B6, the Kd came to 0.263 nM, the koff was found to be 0.000721 s⁻¹ and the on-rate (kon) was 2.79e+06 M⁻¹ s⁻¹.

For B7, the Kd came to 0.216 nM, the koff amounted to 0.000601 s⁻¹ and the kon turned out to be 2.79e+06 M⁻¹ s⁻¹.

Turning to B8, the dissociation constant (Kd) stood at 0.819 nM, the koff was 0.00967 s⁻¹ and the on-rate (kon) worked out at 1.18e+07 M⁻¹ s⁻¹.

Regarding B9, the equilibrium dissociation constant (Kd) came out at 0.22 nM, the koff came out at 0.000662 s⁻¹ and the kon was found to be 3.11e+06 M⁻¹ s⁻¹.

Turning to B10, the Kd stood at 0.189 nM, the koff turned out to be 0.000614 s⁻¹ and the kon was 3.26e+06 M⁻¹ s⁻¹.

Consider B11, for which the Kd came out at 0.147 nM, the koff worked out at 0.000404 s⁻¹ and the kon is 2.75e+06 M⁻¹ s⁻¹.

For the molecule B12, the equilibrium dissociation constant (Kd) was 0.218 nM, the koff stood at 0.000628 s⁻¹ and the on-rate constant (kon) is 2.9e+06 M⁻¹ s⁻¹.

For B13, the Kd was found to be 1.08 nM, the koff came out at 0.00433 s⁻¹ and the kon came to 4.02e+06 M⁻¹ s⁻¹.

As for B14, the dissociation constant (Kd) came out at 0.161 nM, the dissociation rate constant (koff) worked out at 0.000463 s⁻¹ and the kon was 2.88e+06 M⁻¹ s⁻¹.

As to B15, the equilibrium dissociation constant (Kd) worked out at 0.24 nM, the koff is 0.000798 s⁻¹ and the on-rate constant (kon) was determined as 3.34e+06 M⁻¹ s⁻¹.

Take B16: the Kd came to 0.19 nM, the koff was 0.000787 s⁻¹ and the association rate constant (kon) was found to be 4.48e+06 M⁻¹ s⁻¹.

On to B17, for which the dissociation constant Kd is 0.655 nM, the off-rate (koff) was 0.00553 s⁻¹ and the association rate constant (kon) came out at 8.44e+06 M⁻¹ s⁻¹.

Take B18: the dissociation constant Kd was determined as 0.567 nM, the koff amounted to 0.0154 s⁻¹ and the kon amounted to 2.71e+07 M⁻¹ s⁻¹.

As for B19, the equilibrium dissociation constant (Kd) turned out to be 0.182 nM, the dissociation rate constant (koff) was 0.000588 s⁻¹ and the on-rate constant (kon) worked out at 3.25e+06 M⁻¹ s⁻¹.

As for B20, the dissociation constant (Kd) was found to be 0.221 nM, the koff was determined as 0.000591 s⁻¹ and the kon turned out to be 2.67e+06 M⁻¹ s⁻¹.

With B21, the Kd is 0.173 nM, the off-rate (koff) is 0.000498 s⁻¹ and the association rate constant (kon) amounted to 2.88e+06 M⁻¹ s⁻¹.

As to B22, the Kd is 0.0855 nM, the koff is 0.000255 s⁻¹ and the kon is 3e+06 M⁻¹ s⁻¹.
